For the test, the target named is recombinant SARS-CoV-2 Spike protein antigen (Z03501, Genscript) (SARS-CoV-2) (UniProt P0DTC2).

As for “Monoclonal antibody against the SARS-CoV-2 Spike protein (A02038, Genscript)”, the Kd (usually the equilibrium constant for the complex coming apart) came to 2.39 nM; the koff – broadly, a measure of how fast the partners let go of each other – worked out at 0.000603 s⁻¹; the kon (in general, the second-order rate constant of association) is 252000 M⁻¹ s⁻¹.

The record behind these values is patent US20240036044A1.
